Laboratory results as given in patent publication US8404239B2, “Anti-Notch2 NRR antibodies” (Genentech, Inc., priority 2008, dated 2013).

Test system: SK23 melanoma cells
Assay: Cell Titer Glo viability of melanoma cell line SK23
Format: cell-based, human
Conditions: six days, antibodies 20 mg/ml, DAPT 5 μM, ± Jagged-1
Procedure: Human melanoma cell lines SK23 and LOX-IMVI were plated in medium containing 2% FBS at low density (4000 cells/well for SK23, 2500 cells/well for LOX-IMVI) in 96 well plates that were coated without (−jag-1) or with Jagged-1 ligand (+jag-1) (R&D Systems, Minneapolis, Minn.). […] An equal volume of DMSO served as the vehicle control, whereas an equal concentration of anti-gD HuB6 phage antibody served as the isotype control antibody. Cell Titer Glo assays (Promega, Madison, Wis.) were performed six days after plating. […] In FIGS. 25A and 25B, cell viability (y-axis) is expressed relative to the values from the DMSO vehicle, −jag-1 control wells.

B1: anti-NRR2: affinity matured form of Antibody D, phage library-derived human anti-Notch2 NRR monoclonal antibody (antibody, V domains shown)
VH: EVQLVESGGGLVQPGGSLRLSCAASGYTFSSYGMSWVRQAPGKGLEWVSYIYPYSGATYYADSVKGRFTISADTSKNTAYLQMNSLRAEDTAVYYCARHSGYYRISSAMDVWGQGTLVTVSA
VL: DIQMTQSPSSLSASVGDRVTITCRASQNIKRFLAWYQQKPGKAPKLLIYGASTRESGVPSRFSGSGSGTDFTLTISSLQPEDFATYYCQQYYRSPHTFGQGTKVEIKR
cell viability: decrease in viability
